Laboratory results as given in PMC5984625, “Dynamic structural states of ClpB involved in its disaggregation function” (Nature Communications, 2018).

Tests used:
[1] = molecular target: the molecule itself; assay: AUC; sedimentation velocity, 20 °C, 42,000 rpm, 50 mM MOPS pH 7.5, 50 mM KCl, 5 mM MgCl2, 0.5 and 2.0 mg/mL protein, with 20 mM ADP (preincubated 55 °C 1 min)
[2] = molecular target: the molecule itself; assay: native MS; incubated at 55 °C with 2 mM ATP or ATPγS for 1 min, exchanged into 150 mM ammonium acetate pH 7.5 with 100 µM ATP or ATPγS at 4 °C; nanoflow electrospray
[3] = molecular target: the molecule itself; assay: AUC; sedimentation velocity, 20 °C, 42,000 rpm, 50 mM MOPS pH 7.5, 50 mM KCl, 5 mM MgCl2, 0.5 and 2.0 mg/mL protein, with 2 mM ATPγS (preincubated 55 °C 1 min)
[4] = molecular target: the molecule itself; assay: AUC; sedimentation velocity, 20 °C, 42,000 rpm, 50 mM MOPS pH 7.5, 50 mM KCl, 5 mM MgCl2, 0.5 and 2.0 mg/mL protein, with 20 mM ATP (preincubated 55 °C 1 min)

B1: Full-length T. thermophilus ClpB (TClpB) (natural protein)
chain: not shown
notes: ClpB of Thermus thermophilus, full length, expressed from plasmid pMCB1; The protomer; it assembles into oligomers of varying size depending on the nucleotide; also called full-length TClpB; source: E. coli BL21(DE3) or KRX carrying pMCB1, purified
For B1, the “stoichiometry N” value [1] was less than 6, the “stoichiometry N” value [2] was 2 and the “stoichiometry N” value [3] was 6. For the same protein, the “stoichiometry N” value [4] was 3.
